The results in this text go back to paper PMC4476070.

Like-named read-outs stand apart in the source and are kept apart here.

For data set [1], the target named is T1, DMRT1 full-length (Homo sapiens, UniProt Q9Y5R6 1-373). Briefly: EMSA. A general note: A gel shift assay detects complexes by their altered migration in electrophoresis.
Data set [2] addresses T2, DMRT1 full-length;DMRT1 R111G (Homo sapiens;Homo sapiens, UniProt Q9Y5R6;Q9Y5R6 1-373;1-373, |R111G). Briefly: EMSA.
Data set [3] has as its target DMRT1 R123Q (Homo sapiens, UniProt Q9Y5R6 1-373, R123Q). Briefly: EMSA.
In data set [4] the target is DMRT1 R123A (Homo sapiens, UniProt Q9Y5R6 1-373, R123A). Nature of the data set: EMSA.
Chain of DMRT1 R123A (Q9Y5R6 whole entry R123A): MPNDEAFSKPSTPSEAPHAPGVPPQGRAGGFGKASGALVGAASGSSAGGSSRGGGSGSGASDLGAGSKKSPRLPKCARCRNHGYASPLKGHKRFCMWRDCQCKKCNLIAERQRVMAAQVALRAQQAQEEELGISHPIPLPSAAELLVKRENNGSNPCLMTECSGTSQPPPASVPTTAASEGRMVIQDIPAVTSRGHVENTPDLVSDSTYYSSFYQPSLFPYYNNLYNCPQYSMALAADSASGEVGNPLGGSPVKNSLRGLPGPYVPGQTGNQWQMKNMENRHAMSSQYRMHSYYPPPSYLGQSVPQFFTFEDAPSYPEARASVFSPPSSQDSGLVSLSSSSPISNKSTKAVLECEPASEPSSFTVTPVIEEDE
Data set [5] concerns the target T3, SUMO-DMRT1 67-136 (Homo sapiens, UniProt Q9Y5R6 67-136). Briefly: EMSA.
For data set [6], the target named is DMRT1 67-136 (Homo sapiens, UniProt Q9Y5R6 67-136). Briefly: X-ray crystallography.
Chain of DMRT1 67-136 (Q9Y5R6 67-136): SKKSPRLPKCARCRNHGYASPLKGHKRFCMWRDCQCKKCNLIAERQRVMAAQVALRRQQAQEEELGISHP
Data set [7] concerns the target T1, DMRT1 full-length. Nature of the data set: EMSA. This is another data set of the same source.
Data set [8] addresses T3, SUMO-DMRT1 67-136. Briefly: EMSA. The source holds these as a separate data set.
Data set [9] has as its target T2, DMRT1 full-length;DMRT1 R111G. Briefly: EMSA. This is another data set of the same source.
Data set [10] concerns the target T1, DMRT1 full-length. Briefly: EMSA. This is another data set of the same source.

T1 sequence (Q9Y5R6 whole entry): as the sequence (Q9Y5R6 whole entry R123A) above, with A123R counted along it
T3 sequence (Q9Y5R6 67-136): as the sequence (Q9Y5R6 67-136) above
T2 sequence (Q9Y5R6 whole entry, stated change not applied, chain 1 of 2): as the sequence (Q9Y5R6 whole entry R123A) above, with A123R counted along it
T2 sequence (Q9Y5R6 whole entry R111G, chain 2 of 2): as the sequence (Q9Y5R6 whole entry R123A) above, with R111G, A123R counted along it
Chain of DMRT1 R123Q (Q9Y5R6 whole entry R123Q): as the sequence (Q9Y5R6 whole entry R123A) above, with A123Q counted along it

B1: Sox9 site (dsDNA)
DNA 1: GTGGCTGGGCACCCTGCAGAGACAATGTTTCCAGCTGCAGGTCAGGTCT
DNA 2: AGACCTGACCTGCAGCTGGAAACATTGTCTCTGCAGGGTGCCCAGCCAC
In the case of B1, the binding result in [1] and in [2] was “binds” each time.

B2: Site 1 (49 bp) (dsDNA)
DNA 1: GTGGCTGGGCAGAGATTTGATACATTGTTGCTCGATGGAGGTCAGGTCT
DNA 2: AGACCTGACCTCCATCGAGCAACAATGTATCAAATCTCTGCCCAGCCAC
For the molecule B2, the binding result in data set [3] and in data set [4] was “no binding” throughout.

B3: Site 4 (27 bp) (dsDNA)
DNA 1: TTGCTATGATACATTGTATCTTGCTGG
DNA 2: CCAGCAAGATACAATGTATCATAGCAA
Regarding B3, the binding result in data set [5] was “binds”.

B4: Site 1 crystal 25-mer (dsDNA)
DNA 1: CGAGATTTGATACATTGTTGCTCGA
DNA 2: TCGAGCAACAATGTATCAAATCTCG
For the molecule B4, the binding result in data set [6] is “binds”.

B5: Site 3 (27 bp) (dsDNA)
DNA 1: GAGATTTGATACATTATTAATTTATGG
DNA 2: CCATAAATTAATAATGTATCAAATCTC
As to B5, in data set [7], the binding result was “binds”.

B6: Site 1 (27 bp) (dsDNA)
DNA 1: GAGATTTGATACATTGTTGCTCGATGG
DNA 2: CCATCGAGCAACAATGTATCAAATCTC
Take B6: the binding result in [1], in [8] and in [9] was “binds” in each case.

B7: Site 2 (27 bp) (dsDNA)
DNA 1: GAGATTTGATACATTGTTACTTTATGG
DNA 2: CCATAAAGTAACAATGTATCAAATCTC
As for B7, the binding result in [10] was “binds”.
